Results on ten molecules are retold here after PMC6393309 (Nucleic Acids Research, 2019).

T1: λ Exo – Redβ complex (Escherichia phage lambda, UniProt P03698)
T1 sequence (P03698 1-261): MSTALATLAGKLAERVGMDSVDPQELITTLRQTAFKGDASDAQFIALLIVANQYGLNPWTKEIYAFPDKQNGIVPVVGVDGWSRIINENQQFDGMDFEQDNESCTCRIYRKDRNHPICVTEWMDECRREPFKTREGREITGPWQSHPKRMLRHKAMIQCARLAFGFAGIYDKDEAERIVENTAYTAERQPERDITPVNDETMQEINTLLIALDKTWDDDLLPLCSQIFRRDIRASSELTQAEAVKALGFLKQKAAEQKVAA

T2: Redβ (Escherichia phage lambda, UniProt P03698)
T2 sequence (P03698 1-261): T1 sequence (P03698 1-261)

T3: complex of λ Exo and full-length untagged Redβ (bacteriophage λ, UniProt P03697;P03698)
T3 sequence 1: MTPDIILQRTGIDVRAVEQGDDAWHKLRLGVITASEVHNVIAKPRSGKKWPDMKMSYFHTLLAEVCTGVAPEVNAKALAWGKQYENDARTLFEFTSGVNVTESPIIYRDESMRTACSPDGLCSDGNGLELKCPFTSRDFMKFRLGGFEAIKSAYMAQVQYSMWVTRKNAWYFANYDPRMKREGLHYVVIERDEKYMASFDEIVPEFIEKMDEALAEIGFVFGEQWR
T3 sequence 2: T1 sequence (P03698 1-261)

T4: Redβ, full-length, untagged (wild type) (bacteriophage λ, UniProt P03698 1-261)
T4 sequence: T1 sequence (P03698 1-261)

T5: 6His-tagged Escherichia coli exonuclease I (Escherichia coli, UniProt P04995 1-475)
T5 sequence: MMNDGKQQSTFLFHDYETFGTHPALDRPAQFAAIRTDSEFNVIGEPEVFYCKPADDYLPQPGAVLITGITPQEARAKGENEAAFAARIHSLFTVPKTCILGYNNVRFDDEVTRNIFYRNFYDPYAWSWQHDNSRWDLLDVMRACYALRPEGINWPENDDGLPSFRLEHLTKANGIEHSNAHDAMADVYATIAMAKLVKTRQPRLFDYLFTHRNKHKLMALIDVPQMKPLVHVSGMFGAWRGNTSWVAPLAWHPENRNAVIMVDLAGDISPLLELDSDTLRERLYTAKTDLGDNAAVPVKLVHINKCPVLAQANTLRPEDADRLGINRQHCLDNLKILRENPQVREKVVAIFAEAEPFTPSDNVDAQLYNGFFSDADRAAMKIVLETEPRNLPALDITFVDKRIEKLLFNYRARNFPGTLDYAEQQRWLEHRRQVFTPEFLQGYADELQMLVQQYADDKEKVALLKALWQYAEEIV

B1: Redβ^1–250: variant of Redβ lacking the C-terminal 11 residues (protein)
chain: MSTALATLAGKLAERVGMDSVDPQELITTLRQTAFKGDASDAQFIALLIVANQYGLNPWTKEIYAFPDKQNGIVPVVGVDGWSRIINENQQFDGMDFEQDNESCTCRIYRKDRNHPICVTEWMDECRREPFKTREGREITGPWQSHPKRMLRHKAMIQCARLAFGFAGIYDKDEAERIVENTAYTAERQPERDITPVNDETMQEINTLLIALDKTWDDDLLPLCSQIFRRDIRASSELTQAEAVKALGFL
B2: Redβ C-terminal domain (residues 183-261) (domain or fragment)
chain: AYTAERQPERDITPVNDETMQEINTLLIALDKTWDDDLLPLCSQIFRRDIRASSELTQAEAVKALGFLKQKAAEQKVAA
B3: λ Exonuclease, full-length, untagged (enzyme)
chain: T3 sequence 1
B4: Q252A Redβ: Redβ variant (protein)
chain: T1 sequence (P03698 1-261) with Q252A
B5: Q240A (protein, UniProt P03698 1-261, looked up, variant Q240A)
Recombination protein bet: T1 sequence (P03698 1-261) with Q240A
B6: E256A Redβ: Redβ variant (protein)
chain: T1 sequence (P03698 1-261) with E256A
B7: YbcN: Orf homolog from E. coli cryptic prophage DLP12 (protein, UniProt Q47269 1-151, looked up)
Uncharacterized protein YbcN: MNLSQDGIKLHRGNFTAIGRQIQPYLEEGKCFRMVLKPWREKRSLSQNALSHMWYSEISEYLISRGKTFATPAWVKDALKHTYLGYETKDLVDVVTGDITTIQSLRHTSDLDTGEMYVFLCKVEAWAMNIGCHLTIPQSCEFQLLRDKQEA

For one series, the target named is T1, λ Exo – Redβ complex. As to the kind of experiment: Fluorescence anisotropy binding of SSB-Ct peptide to λ Exo–Redβ complex. The arrangement: species or system Bacteriophage λ. In general terms: In fluorescence polarisation assays a small probe gives low polarisation when free and higher when bound to something large.
Another series addresses T2, Redβ. Briefly: Fluorescence anisotropy binding of SSB-Ct peptide to Redβ. The note with it: 20 nM FAM-WMDFDDDIPA, full-length Redβ, pH 7.5, 25°C. The arrangement: species or system Bacteriophage λ.
The target in series [1] is T3, complex of λ Exo and full-length …. Briefly: fluorescence polarisation.
Series [2] deals with T4, Redβ, full-length, untagged (wild type). As to the kind of experiment: fluorescence polarisation.
In series [3] the target is T5, 6His-tagged Escherichia coli …. As to the kind of experiment: fluorescence polarisation.
The conditions of series [4]: cited from earlier work.
For the next series, the system named is λ Exo. The note with it: cited from earlier work.
For series [5] the following is noted: cited from earlier work; for dsDNA relative to ssDNA recombination: individual CTD mutations.
The target of series [6] is B3. As to the kind of experiment: crystal structure.
The subject of the next series is ssDNA or dsDNA. The note with it: cited from earlier work.
The series “crystal structure” deals with the molecule itself. As to the kind of experiment: crystal structure.
Series [7] has as its system GB2005 E. coli cells. As to the kind of experiment: ssDNA recombination assay. The series is classed as cell-based. The note with it: % of WT colonies per 10^8 viable cells.
The test system of series [8] is GB2005 E. coli cells. As to the kind of experiment: dsDNA recombination assay. The series is classed as cell-based. The conditions noted are these: % of WT colonies per 10^8 viable cells.
The next series has as its system SSB. The conditions noted are these: cited from earlier work.

The term Kd denotes the equilibrium constant for the complex coming apart. The low end stands for higher affinity, the high end for lower affinity. For orientation: stoichiometry N means a count of units in the complex or per binding partner.

Substitutions are numbered along the chain they refer to. Names may count otherwise. “And” between values parts separate entries of the source, which are not always exact repeats. Equal entries are not always repeated. “Also recorded” adds a separate entry of the source. Where two headings read alike, the source gives them in different places. Residues, ends and D or L forms follow the SMILES beside them. No end group written: not given here. *: point of attachment. 5FAM = O=C1OC2(c3ccc(O)cc3Oc3cc(O)ccc32)c2ccc(C(=O)*)cc21

On λ Exo – Redβ complex, `CC[C@H](C)[C@H](NC(=O)[C@H](CC(=O)O)NC(=O)[C@H](CC(=O)O)NC(=O)[C@H](CC(=O)O)NC(=O)[C@H](Cc1ccccc1)NC(=O)[C@H](CC(=O)O)NC(=O)[C@H](CCSC)NC(=O)[C@H](Cc1c[nH]c2ccccc12)NC(=O)c1ccc2c(c1)C(=O)OC21c2ccc(O)cc2Oc2cc(O)ccc21)C(=O)N1CCC[C@H]1C(=O)N[C@@H](Cc1ccccc1)C(=O)O` [SSB-Ct, FAM-WMDFDDDIPF] (5FAM-WMDFDDDIPF-OH) showed a Kd of 12.8 ± 3.5 µM.

As to “FAM-WMDFDDDIPA [SSB-Ct peptide with the F177A mutation]”, the “binding of F177A SSB-Ct peptide to Redβ” value at Redβ is “completely failed to interact; also recorded: fails to bind”.

Turning to {FAM}-WMDFDDDIPF [SSB C-terminal peptide, fluorescein-labeled (FAM-WMDFDDDIPF)], the equilibrium dissociation constant (Kd) was 12.8 µM and 12 µM in series [1]; 10.6 µM in series [2]; 0.098 µM in [3].

Take B1: the ssDNA recombination entry in series [4] is on record as “completely disrupts”. The “interaction with λ Exo” value in the series on λ Exo (Ni-spin pull down) was “completely disrupts the interaction with λ Exo”. Besides, the dsDNA recombination entry in series [5] was “completely disrupts”.

Consider B2, for which the binding result in series [6] was “binds”. For the same molecule, the “interaction with λ Exo” value in the series on λ Exo (Ni-spin pull down) is “clear interaction”. The “interaction with ssDNA or dsDNA” value in the series with ssDNA or dsDNA is recorded as “no interaction with ssDNA or dsDNA”.

Take B3: in “crystal structure”, the “stoichiometry N” value worked out at 3.

For the molecule B4, in series [5], the “dsDNA relative to ssDNA recombination” value is reported as “decreased dsDNA more than ssDNA recombination”. The “SS (%): ssDNA recombination compared to WT” value is reported as 101% in the series with GB2005 E. coli cells [7] and 13 to 101% with GB2005 E. coli cells [7] (listed as Q252A). In addition, the “DS (%): dsDNA recombination compared to WT” value in the series with GB2005 E. coli cells [8] is reported as 85%; with GB2005 E. coli cells [8] (listed as Q252A), 55–106%.

As to B5, the “interaction with λ Exo” value in the series on λ Exo is “weakened (but did not abolish) the interaction with λ Exo”. Moreover, the “dsDNA relative to ssDNA recombination” value in series [5] was “disrupted dsDNA and ssDNA equally”.

For B6, the “dsDNA relative to ssDNA recombination” value in series [5] is reported as “decreased dsDNA more than ssDNA recombination”. The “SS (%): ssDNA recombination compared to WT” value is recorded as 55% in the series with GB2005 E. coli cells [7] and 13 to 101% in the series with GB2005 E. coli cells [7] (listed as E256A). Besides, the “DS (%): dsDNA recombination compared to WT” value in the series on GB2005 E. coli cells [8] was 69%; in the series with GB2005 E. coli cells [8] (listed as E256A) it was 55–106%.

For B7, the “requirement of SSB C-tail for interaction with SSB” value in the series on SSB is “does require the C-tail for its interaction with SSB”.
